Data on 4 substances can be found in article PMC5618221.

The target in experiment [1] is Hbl B in culture supernatant of B. cereus strain MHI 1532 (Bacillus cereus strain MHI 1532 (endogenous in culture supernatant)) (UniProt P80172). As to the kind of experiment: co-IP.
The target of experiment [2] is recombinant Hbl L1 (haemolysin BL component L1) (Bacillus cereus strain F837/76). As to the kind of experiment: SPR; BIACORE 3000; rHbl L1 amine-coupled to CM5 chip (560 RU); rHbl L2 or B injected 7.8 nM to 2 uM at 30 uL/min, 20 °C, in PBS, 1 mM DTT, 0.005% Tween 20; KD from steady state, one-site model, mean of three (L2) or four (B) experiments; L1 + B did not reach full saturation at lower concentrations, KD likely slightly underestimated.

Experiment [3] deals with recombinant Hbl B (haemolysin BL binding component B) (Bacillus cereus strain F837/76) (UniProt P80172). As to the kind of experiment: SPR; BIACORE 3000; rHbl B amine-coupled to CM5 chip (500 RU); rHbl L2 injected 31.2 nM to 4 uM at 30 uL/min, 20 °C, in PBS, 1 mM DTT, 0.005% Tween 20; KD from steady state, mean of four experiments.

A value given as a limit tells only on which side of the number the result lay.

With “Hbl L1 in culture supernatant of B. cereus strain MHI 1532 (natural protein)”, in experiment [1], the percent in elution fraction was 180%, the percent in sample flow-through is under 5% and the percent in wash fraction was under 5%.

In experiment [1], “Hbl L2 in culture supernatant of B. cereus strain MHI 1532 (natural protein)” displayed a percent in elution fraction of 29%, a percent in sample flow-through of 51% and a percent in wash fraction of 20%.

What is called Kd is the free concentration of one partner at which half of the binding sites on the other are occupied at equilibrium, for simple one-to-one binding. Take “recombinant Hbl B (haemolysin BL binding component B) (from UniProt P80172 32-375) (natural protein)”: in experiment [2], the Kd was 470 nM.

Turning to “recombinant Hbl L2 (haemolysin BL component L2) (natural protein)”, the Kd in experiment [2] was 150 nM; in experiment [3], 3400 nM.
